Source: article PMC8143792, “Sec17/Sec18 can support membrane fusion without help from completion of SNARE zippering” (eLife, 2021)

B1: his6-R (Nyv1), full-length R-SNARE with a 6his-tag on its N-terminus (natural protein, Saccharomyces cerevisiae, UniProt Q12255 1-253, looked up)
chain: MKRFNVSYVEVIKNGETISSCFQPFQKNENYGTITSANEQITPVIFHNLIMDMVLPKVVPIKGNKVTKMSMNLIDGFDCFYSTDDHDPKTVYVCFTLVDMPKILPIRILSGLQEYESNATNELLSSHVGQILDSFHEELVEYRNQTLNSSGNGQSSNGNGQNTISDIGDATEDQIKDVIQIMNDNIDKFLERQERVSLLVDKTSQLNSSSNKFRRKAVNIKEIMWWQKVKNITLLTFTIILFVSAAFMFFYLW
notes: Nyv1, the vacuolar R-SNARE of Saccharomyces cerevisiae, full length with its membrane anchor; construct as in the cited work (PMID:22174414); also called His-R (Nyv1); source: E. coli, purified; not shown: His6, N-terminal, kept

Key:
Qa (Vam3), full-length = molecular target: T1, Qa (Vam3), full-length (Saccharomyces cerevisiae, UniProt Q12241 1-283); experiment: pull-down; his6-R held on nickel-NTA agarose; 2.5 µM of each SNARE (R and three Q-SNAREs mixed), Buffer 151 (20 mM HEPES-NaOH, pH 7.4, 150 mM NaCl, 10% glycerol, 1% ß-OG, 20 mM imidazole), 4°C, 2 hr then 1 hr on beads; immunoblot; settings: both partners purified
T1 construct: Vam3, the vacuolar Qa-SNARE of Saccharomyces cerevisiae, full length with its transmembrane anchor; whether GST was removed is told only in the cited work; also called GST-Qa (Vam3); source: E. coli, purified
T1 sequence (looked up): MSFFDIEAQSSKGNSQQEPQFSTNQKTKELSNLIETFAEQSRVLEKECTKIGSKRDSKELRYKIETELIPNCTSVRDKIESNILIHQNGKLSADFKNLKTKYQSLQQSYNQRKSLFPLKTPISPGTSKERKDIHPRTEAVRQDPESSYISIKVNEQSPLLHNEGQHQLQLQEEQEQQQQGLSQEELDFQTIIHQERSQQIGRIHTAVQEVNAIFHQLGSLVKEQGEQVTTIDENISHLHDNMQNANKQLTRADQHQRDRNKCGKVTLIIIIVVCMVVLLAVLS

[1] = molecular target: B1; experiment: as above; settings: both partners purified

B1
binding result (Qa (Vam3), full-length): binds

B2: sQa3Δ, soluble Qa (Vam3) with amino acyl residues 1–235 (domain or fragment, Saccharomyces cerevisiae, UniProt Q12241 1-235, looked up)
chain: MSFFDIEAQSSKGNSQQEPQFSTNQKTKELSNLIETFAEQSRVLEKECTKIGSKRDSKELRYKIETELIPNCTSVRDKIESNILIHQNGKLSADFKNLKTKYQSLQQSYNQRKSLFPLKTPISPGTSKERKDIHPRTEAVRQDPESSYISIKVNEQSPLLHNEGQHQLQLQEEQEQQQQGLSQEELDFQTIIHQERSQQIGRIHTAVQEVNAIFHQLGSLVKEQGEQVTTIDENI
notes: Vam3 of Saccharomyces cerevisiae, residues 1-235; lacks the regions C-terminal to the +3 layer of the SNARE domain; also called GST-sQa3Δ; GST-Qa (Vam3)3Δ; source: E. coli Rosetta2 (DE3)-pLysS, purified (glutathione agarose), GST tag removed by TEV protease
binding result [1]: binds

B3: Qb (Vti1), full-length (natural protein, Saccharomyces cerevisiae, UniProt Q04338 1-217, looked up)
chain: MSSLLISYESDFKTTLEQAKASLAEAPSQPLSQRNTTLKHVEQQQDELFDLLDQMDVEVNNSIGDASERATYKAKLREWKKTIQSDIKRPLQSLVDSGDRDRLFGDLNASNIDDDQRQQLLSNHAILQKSGDRLKDASRIANETEGIGSQIMMDLRSQRETLENARQTLFQADSYVDKSIKTLKTMTRRLVANKFISYAIIAVLILLILLVLFSKFK
notes: Vti1, the vacuolar Qb-SNARE of Saccharomyces cerevisiae, full length with its transmembrane anchor; whether GST was removed is told only in the cited work; also called GST-Qb (Vti1); source: E. coli, purified
binding result [1]: binds

B4: sQb3Δ, soluble Qb (Vti1) with amino acyl residues 1–160 (domain or fragment, Saccharomyces cerevisiae, UniProt Q04338 1-160, looked up)
chain: MSSLLISYESDFKTTLEQAKASLAEAPSQPLSQRNTTLKHVEQQQDELFDLLDQMDVEVNNSIGDASERATYKAKLREWKKTIQSDIKRPLQSLVDSGDRDRLFGDLNASNIDDDQRQQLLSNHAILQKSGDRLKDASRIANETEGIGSQIMMDLRSQRE
notes: Vti1 of Saccharomyces cerevisiae, residues 1-160; lacks the regions C-terminal to the +3 layer of the SNARE domain; also called GST-sQb3Δ; GST-Qb (Vti1)3Δ; source: E. coli Rosetta2 (DE3)-pLysS, purified (glutathione agarose), GST tag removed by TEV protease
binding result [1]: binds
